Columns and labels:
MBP-FoxP3dN [1] = target: T1, MBP-FoxP3dN (Mus musculus, UniProt Q99JB6 188-423); experiment: pull-down; comparable to IR-FKHM; Pull-down: 20 mM Tris-HCl pH 7.5, 100 mM NaCl, 1.5 mM MgCl2, room temperature, 0.4 uM MBP protein, 0.1 uM DNA (NFAT 0.2 uM); EMSA: 20 mM HEPES pH 7.5, 150 mM NaCl, 1.5 mM MgCl2, 2 mM DTT, 4 C, 0.2 uM DNA (RBR-FKH 0.8 uM, NFAT 0.4 uM); conditions: protein: recombinant; tags: His6-MBP; chain copies: 2; blunt
T1 sequence: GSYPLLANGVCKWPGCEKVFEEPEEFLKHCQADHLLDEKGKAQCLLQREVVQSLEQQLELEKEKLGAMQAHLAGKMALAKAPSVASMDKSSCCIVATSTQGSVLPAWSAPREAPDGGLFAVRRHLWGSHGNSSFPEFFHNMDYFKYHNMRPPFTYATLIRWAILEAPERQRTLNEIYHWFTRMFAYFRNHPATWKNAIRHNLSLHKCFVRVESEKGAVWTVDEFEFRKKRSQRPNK
In short: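 0.4 µM MBP-tagged mouse FoxP3 fragment (plus 0.2 µM NFAT fragment where included) was mixed with 0.1 µM duplex DNA in Tris buffer with NaCl and MgCl2 at room temperature. Complexes were captured on amylose resin, and proteinase K-released DNA was run on 10% TBE gels stained with SYBR Gold. In a gel-shift arm, 0.2 µM DNA and protein were held 10 min at 4 °C in HEPES buffer, then run on native gels. Binding was judged qualitatively from gels.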

FoxP3 RBR-FKH;NFAT1 DBD [2] = target: T2, FoxP3 RBR-FKH;NFAT1 DBD (Mus musculus;Mus musculus?, UniProt Q99JB6;Q60591 284-423;394-680, |); experiment: EMSA; dimer; Pull-down: 20 mM Tris-HCl pH 7.5, 100 mM NaCl, 1.5 mM MgCl2, room temperature, 0.4 uM MBP protein, 0.1 uM DNA (NFAT 0.2 uM); EMSA: 20 mM HEPES pH 7.5, 150 mM NaCl, 1.5 mM MgCl2, 2 mM DTT, 4 C, 0.2 uM DNA (RBR-FKH 0.8 uM, NFAT 0.4 uM); conditions: protein: recombinant;recombinant; tags: none (His6-NusA cleaved);none (His6-NusA cleaved); copies: 1;1; blunt
T2 sequence 1: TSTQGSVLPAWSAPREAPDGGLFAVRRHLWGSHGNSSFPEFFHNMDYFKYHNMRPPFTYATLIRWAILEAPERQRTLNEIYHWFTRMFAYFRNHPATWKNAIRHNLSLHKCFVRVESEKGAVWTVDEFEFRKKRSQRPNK
T2 sequence 2: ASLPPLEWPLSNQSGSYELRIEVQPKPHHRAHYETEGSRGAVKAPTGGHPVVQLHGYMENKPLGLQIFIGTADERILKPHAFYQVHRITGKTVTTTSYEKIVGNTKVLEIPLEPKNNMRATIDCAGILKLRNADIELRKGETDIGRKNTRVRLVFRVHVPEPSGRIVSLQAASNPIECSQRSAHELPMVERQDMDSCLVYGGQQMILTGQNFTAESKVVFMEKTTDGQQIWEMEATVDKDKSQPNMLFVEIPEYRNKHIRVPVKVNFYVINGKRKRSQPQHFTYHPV

[3] = target: T3, FoxP3RBR-FoxP1FKH;NFAT1 DBD (Mus musculus;Mus musculus?, UniProt Q99JB6;Q60591 284-336+P58462:493-579;394-680, internal_change|); experiment: as above; conditions: protein: recombinant;recombinant; tags: none (His6-NusA cleaved);none (His6-NusA cleaved); chain copies: 2;1; blunt
T3 sequence 1: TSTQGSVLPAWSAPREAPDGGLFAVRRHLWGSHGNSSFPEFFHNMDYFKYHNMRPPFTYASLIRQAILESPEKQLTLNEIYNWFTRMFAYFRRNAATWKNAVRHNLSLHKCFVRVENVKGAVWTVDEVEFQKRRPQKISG
T3 sequence 2: T2 sequence 2

[4] = target: T4, FoxP1RBR-FoxP3FKH;NFAT1 DBD (Mus musculus;Mus musculus?, UniProt P58462;Q60591 427-492+Q99JB6:337-423;394-680, internal_change|); experiment: EMSA; monomer; Pull-down: 20 mM Tris-HCl pH 7.5, 100 mM NaCl, 1.5 mM MgCl2, room temperature, 0.4 uM MBP protein, 0.1 uM DNA (NFAT 0.2 uM); EMSA: 20 mM HEPES pH 7.5, 150 mM NaCl, 1.5 mM MgCl2, 2 mM DTT, 4 C, 0.2 uM DNA (RBR-FKH 0.8 uM, NFAT 0.4 uM); conditions: protein: recombinant;recombinant; tags: none (His6-NusA cleaved);none (His6-NusA cleaved); copies: 1;1; blunt
T4 sequence 1: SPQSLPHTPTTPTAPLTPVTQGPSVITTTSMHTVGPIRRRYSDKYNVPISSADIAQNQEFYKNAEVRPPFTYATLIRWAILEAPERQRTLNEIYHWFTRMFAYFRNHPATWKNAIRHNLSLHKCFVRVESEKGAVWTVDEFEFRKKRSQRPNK
T4 sequence 2: T2 sequence 2

FoxP1 RBR-FKH;NFAT1 DBD = target: T5, FoxP1 RBR-FKH;NFAT1 DBD (Mus musculus;Mus musculus?, UniProt P58462;Q60591 427-579;394-680, |); experiment: as above; conditions: protein: recombinant;recombinant; tags: none (His6-NusA cleaved);none (His6-NusA cleaved); copies: 1;1; blunt
T5 sequence 1: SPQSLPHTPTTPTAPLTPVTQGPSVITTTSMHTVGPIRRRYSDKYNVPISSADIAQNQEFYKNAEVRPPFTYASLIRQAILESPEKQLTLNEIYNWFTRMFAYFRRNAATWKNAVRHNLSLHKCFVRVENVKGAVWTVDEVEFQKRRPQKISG
T5 sequence 2: T2 sequence 2

MBP-FoxP3dN [5] = target: T1, MBP-FoxP3dN; experiment: pull-down; Pull-down: 20 mM Tris-HCl pH 7.5, 100 mM NaCl, 1.5 mM MgCl2, room temperature, 0.4 uM MBP protein, 0.1 uM DNA (NFAT 0.2 uM); EMSA: 20 mM HEPES pH 7.5, 150 mM NaCl, 1.5 mM MgCl2, 2 mM DTT, 4 C, 0.2 uM DNA (RBR-FKH 0.8 uM, NFAT 0.4 uM); conditions: protein: recombinant; tags: His6-MBP; chain copies: 2; blunt
MBP-FoxP3dN;NFAT1 DBD [6] = target: T6, MBP-FoxP3dN;NFAT1 DBD (Mus musculus;Mus musculus?, UniProt Q99JB6;Q60591 188-423;394-680, |); experiment: pull-down; optimal NFAT cooperativity; Pull-down: 20 mM Tris-HCl pH 7.5, 100 mM NaCl, 1.5 mM MgCl2, room temperature, 0.4 uM MBP protein, 0.1 uM DNA (NFAT 0.2 uM); EMSA: 20 mM HEPES pH 7.5, 150 mM NaCl, 1.5 mM MgCl2, 2 mM DTT, 4 C, 0.2 uM DNA (RBR-FKH 0.8 uM, NFAT 0.4 uM); conditions: protein: recombinant;recombinant; tags: His6-MBP;none (His6-NusA cleaved); chain copies: 2;1; blunt
T6 sequence 1: T1 sequence
T6 sequence 2: T2 sequence 2

FoxP3 RBR-FKH;NFAT1 DBD [7] = target: T2, FoxP3 RBR-FKH;NFAT1 DBD; experiment: EMSA; monomer; Pull-down: 20 mM Tris-HCl pH 7.5, 100 mM NaCl, 1.5 mM MgCl2, room temperature, 0.4 uM MBP protein, 0.1 uM DNA (NFAT 0.2 uM); EMSA: 20 mM HEPES pH 7.5, 150 mM NaCl, 1.5 mM MgCl2, 2 mM DTT, 4 C, 0.2 uM DNA (RBR-FKH 0.8 uM, NFAT 0.4 uM); conditions: protein: recombinant;recombinant; tags: none (His6-NusA cleaved);none (His6-NusA cleaved); copies: 1;1; blunt
[8] = target: T3, FoxP3RBR-FoxP1FKH;NFAT1 DBD; experiment: as above; conditions: protein: recombinant;recombinant; tags: none (His6-NusA cleaved);none (His6-NusA cleaved); chain copies: 2;1; blunt
MBP-FoxP3dN;NFAT1 DBD [9] = target: T6, MBP-FoxP3dN;NFAT1 DBD; experiment: pull-down; NFAT enhances binding; Pull-down: 20 mM Tris-HCl pH 7.5, 100 mM NaCl, 1.5 mM MgCl2, room temperature, 0.4 uM MBP protein, 0.1 uM DNA (NFAT 0.2 uM); EMSA: 20 mM HEPES pH 7.5, 150 mM NaCl, 1.5 mM MgCl2, 2 mM DTT, 4 C, 0.2 uM DNA (RBR-FKH 0.8 uM, NFAT 0.4 uM); conditions: protein: recombinant;recombinant; tags: His6-MBP;none (His6-NusA cleaved); chain copies: 2;1; blunt

B1: DNA 3 (Fig S1F) (dsDNA)
DNA 1: AATTTTGTGCATTCGAGTAAACAAATTT
DNA 2: AAATTTGTTTACTCGAATGCACAAAATT
- binding result (MBP-FoxP3dN [1]): binds

B2: DNA 2 (Fig S1F) (dsDNA)
DNA 1: AATTTTGTTGTGTCGAGTAAACAAATTT
DNA 2: AAATTTGTTTACTCGACACAACAAAATT
- binding result (MBP-FoxP3dN [1]): binds

B3: DNA1 (NFAT IR-FKHM) (dsDNA)
DNA 1: TTAGGAAAATTTGTTTACTCGAGTAAACAAA
DNA 2: TTTGTTTACTCGAGTAAACAAATTTTCCTAA
- binding result (FoxP3 RBR-FKH;NFAT1 DBD [2]): binds
- binding result [3]: binds
- binding result [4]: binds
- binding result (FoxP1 RBR-FKH;NFAT1 DBD): binds

B4: IR-FKHM (Fig 1C) (dsDNA)
DNA 1: TAGGAAAATTTGTTTACTCGAGTAAACATC
DNA 2: GATGTTTACTCGAGTAAACAAATTTTCCTA
- binding result (MBP-FoxP3dN [5]): binds

B5: Var7 (dsDNA)
DNA 1: TTAGGAAATTTGTGCATTCGAGTAAACAAATTT
DNA 2: AAATTTGTTTACTCGAATGCACAAATTTCCTAA
- binding result (MBP-FoxP3dN;NFAT1 DBD [6]): binds

B6: DNA2 (NFAT sFKHM) (dsDNA)
DNA 1: TTAGGAAAATTTGTTTACTCCTCGCGGCAAA
DNA 2: TTTGCCGCGAGGAGTAAACAAATTTTCCTAA
- binding result (FoxP3 RBR-FKH;NFAT1 DBD [7]): binds
- binding result [4]: binds
- binding result (FoxP1 RBR-FKH;NFAT1 DBD): binds
- binding result [8]: binds

B7: DNA 1 (Fig S1F) (dsDNA)
DNA 1: AATTTGCGCATCTCGAGTAAACAAATTT
DNA 2: AAATTTGTTTACTCGAGATGCGCAAATT
- binding result (MBP-FoxP3dN [1]): binds

B8: DNA 8 (Fig S1F) (dsDNA)
DNA 1: AATTTGTGTTGTTCGAGTAAACAAATTT
DNA 2: AAATTTGTTTACTCGAACAACACAAATT
- binding result (MBP-FoxP3dN [1]): binds

B9: DNA 4 (Fig S1F) (dsDNA)
DNA 1: AATTTTGTTTATTCGAGTAAACAAATTT
DNA 2: AAATTTGTTTACTCGAATAAACAAAATT
- binding result (MBP-FoxP3dN [1]): binds

B10: DNA 9 (Fig S1F) (dsDNA)
DNA 1: AATTTGTGCATCTCGAGTAAACAAATTT
DNA 2: AAATTTGTTTACTCGAGATGCACAAATT
- binding result (MBP-FoxP3dN [1]): binds

B11: DNA 7 (Fig S1F) (dsDNA)
DNA 1: AATTTGCCGCATTCGAGTAAACAAATTT
DNA 2: AAATTTGTTTACTCGAATGCGGCAAATT
- binding result (MBP-FoxP3dN [1]): binds

B12: DNA 10 (Fig S1F) (dsDNA)
DNA 1: AATTTGTTGCATTCGAGTAAACAAATTT
DNA 2: AAATTTGTTTACTCGAATGCAACAAATT
- binding result (MBP-FoxP3dN [1]): binds

B13: DNA 5 (Fig S1F) (dsDNA)
DNA 1: AATTTGTGTTTATCGAGTAAACAAATTT
DNA 2: AAATTTGTTTACTCGATAAACACAAATT
- binding result (MBP-FoxP3dN [1]): binds

B14: DNA 6 (Fig S1F) (dsDNA)
DNA 1: AATTTGCGCATTTCGAGTAAACAAATTT
DNA 2: AAATTTGTTTACTCGAAATGCGCAAATT
- binding result (MBP-FoxP3dN [1]): binds

B15: Var2 (dsDNA)
DNA 1: TTAGGAAATTTGCGCATCTCGAGTAAACAAATTT
DNA 2: AAATTTGTTTACTCGAGATGCGCAAATTTCCTAA
- binding result (MBP-FoxP3dN;NFAT1 DBD [9]): binds
